Measurements as given in patent publication US20180112001A1 (Regeneron, published 2018).
Changes are numbered by the printed parent chain. Numbers in names are those of the source. Read-outs that look alike come from different tables or passages of the source. Values belong to the binder of their own block, whether it stands above or below them.

Assays:
[1] = molecular target: T1, human MUC16 (mucin 16), endogenously expressed on cells (human); test: MSD electrochemiluminescence cell binding; RLU ratio OVCAR-3/SK-OV-3; Ab 16.7 nM
T1 construct: Endogenous MUC16 on OVCAR-3 / OVCAR3-Luc / PEO-1 / HPAC cells; also called hMUC16

[2] = molecular target: T2, soluble monomeric human MUC16, truncated format encompassing the last five SEA domains of Mucin-16 (human); test: SPR Biacore, antibody captured, soluble monomeric hMUC16.mmh injected, 25C
T2 construct: also called hMUC16.mmh; MUC16 "nub"
T2 chain: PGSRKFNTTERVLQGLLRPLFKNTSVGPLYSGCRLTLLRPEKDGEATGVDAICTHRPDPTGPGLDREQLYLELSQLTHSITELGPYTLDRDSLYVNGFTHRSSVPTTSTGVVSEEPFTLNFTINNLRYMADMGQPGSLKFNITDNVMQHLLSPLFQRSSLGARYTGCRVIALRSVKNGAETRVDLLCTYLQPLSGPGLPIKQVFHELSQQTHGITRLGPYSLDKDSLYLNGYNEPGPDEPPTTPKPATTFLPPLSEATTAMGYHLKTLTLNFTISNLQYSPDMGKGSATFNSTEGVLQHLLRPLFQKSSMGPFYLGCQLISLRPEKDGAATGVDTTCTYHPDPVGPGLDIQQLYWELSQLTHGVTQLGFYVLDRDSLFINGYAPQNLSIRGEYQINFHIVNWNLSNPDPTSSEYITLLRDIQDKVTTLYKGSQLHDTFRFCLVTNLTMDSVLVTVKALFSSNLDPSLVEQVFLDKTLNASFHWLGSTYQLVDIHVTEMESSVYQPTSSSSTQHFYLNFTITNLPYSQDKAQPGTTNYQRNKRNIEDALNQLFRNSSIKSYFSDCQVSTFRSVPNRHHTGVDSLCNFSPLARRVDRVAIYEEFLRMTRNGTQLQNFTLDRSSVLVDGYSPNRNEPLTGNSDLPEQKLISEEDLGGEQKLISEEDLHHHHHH

[3] = molecular target: T3, MUC16 "short" construct expressed on PC3 cells (PC3/MUC16 short) (human); test: IHC on FFPE cell pellets, PC3/MUC16 Short cells
T3 construct: Transfected into PC3/ATCC cells; part of SEA12, SEA13-SEA16, C-terminal non-SEA region, transmembrane region and cytoplasmic domain; also called "nub" portion of MUC16 without the repeat regions
T3 chain: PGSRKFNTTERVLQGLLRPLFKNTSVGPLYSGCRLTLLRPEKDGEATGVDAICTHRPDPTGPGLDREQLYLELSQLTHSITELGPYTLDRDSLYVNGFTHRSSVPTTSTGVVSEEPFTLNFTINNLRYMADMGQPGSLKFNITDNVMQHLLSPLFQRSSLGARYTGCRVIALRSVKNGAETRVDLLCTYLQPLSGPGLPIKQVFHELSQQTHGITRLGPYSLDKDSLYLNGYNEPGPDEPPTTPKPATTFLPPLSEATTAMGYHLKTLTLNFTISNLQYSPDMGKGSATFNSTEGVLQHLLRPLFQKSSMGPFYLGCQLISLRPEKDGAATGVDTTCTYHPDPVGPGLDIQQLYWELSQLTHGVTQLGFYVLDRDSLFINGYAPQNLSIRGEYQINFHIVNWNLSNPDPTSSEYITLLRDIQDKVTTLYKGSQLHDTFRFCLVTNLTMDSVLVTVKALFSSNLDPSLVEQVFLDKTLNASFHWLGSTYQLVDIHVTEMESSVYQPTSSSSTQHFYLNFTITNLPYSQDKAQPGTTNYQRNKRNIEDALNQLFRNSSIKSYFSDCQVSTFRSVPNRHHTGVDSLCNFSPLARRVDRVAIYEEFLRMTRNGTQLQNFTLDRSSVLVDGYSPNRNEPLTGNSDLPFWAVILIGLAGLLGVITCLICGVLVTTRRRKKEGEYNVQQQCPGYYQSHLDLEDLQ

[4] = molecular target: T1, human MUC16 (mucin 16), endogenously …; test: MSD electrochemiluminescence cell binding; RLU ratio OVCAR-3/SK-OV-3; Ab 1.9 nM
[5] = molecular target: T2, soluble monomeric human MUC16, …; test: SPR Biacore, antibody captured, soluble monomeric hMUC16.mmh injected, 25C
[6] = molecular target: T1, human MUC16 (mucin 16), endogenously …; test: MSD electrochemiluminescence cell binding; RLU ratio OVCAR-3/SK-OV-3; Ab 16.7 nM; NS = Non-Specific, ratio <2.5-fold
[7] = molecular target: T1, human MUC16 (mucin 16), endogenously …; test: FACS binding titration on PEO-1 (MUC16+) cells
[8] = molecular target: T1, human MUC16 (mucin 16), endogenously …; test: cell-based or functional assay
[9] = molecular target: T1, human MUC16 (mucin 16), endogenously …; test: cell-based or functional assay; remark: listed apart in the source
[10] = molecular target: T4, cynomolgus monkey CD3 on cynomolgus T cells (cynomolgus monkey, UniProt Q95LI5 22-198); test: FACS binding titration on cynomolgus T cells
T4 construct: whole, on cells; also called cynomolgus CD3
T4 sequence (Q95LI5 22-198): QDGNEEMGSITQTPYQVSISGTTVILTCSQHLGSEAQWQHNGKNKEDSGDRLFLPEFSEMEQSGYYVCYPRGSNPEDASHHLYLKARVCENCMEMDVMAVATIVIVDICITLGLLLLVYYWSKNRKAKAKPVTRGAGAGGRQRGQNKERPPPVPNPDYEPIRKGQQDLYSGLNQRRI

[11] = molecular target: T1, human MUC16 (mucin 16), endogenously …; test: FACS binding titration on OVCAR3-Luc (MUC16+) cells
[12] = molecular target: T2, soluble monomeric human MUC16, …; test: SPR Biacore, antibody captured, soluble monomeric hMUC16.mmh injected, 25C
mouse CD3 = mouse CD3 (mouse, UniProt P22646 22-108); test: not described (statement in the pharmacokinetic example)
Chain of mouse CD3 (P22646 22-108): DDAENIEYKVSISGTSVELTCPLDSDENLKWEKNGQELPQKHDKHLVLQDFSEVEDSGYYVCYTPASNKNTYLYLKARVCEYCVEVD

[13] = molecular target: T5, human CD3 on cells (Jurkat cells, human T cells) (human, UniProt P07766 23-207; P04234 22-171); test: FACS titration of Jurkat cells
T5 construct: on cells CD3 is part of the TCR complex; also called hCD3
T5 sequence (P07766 23-207 limits assumed, chain 1 of 2): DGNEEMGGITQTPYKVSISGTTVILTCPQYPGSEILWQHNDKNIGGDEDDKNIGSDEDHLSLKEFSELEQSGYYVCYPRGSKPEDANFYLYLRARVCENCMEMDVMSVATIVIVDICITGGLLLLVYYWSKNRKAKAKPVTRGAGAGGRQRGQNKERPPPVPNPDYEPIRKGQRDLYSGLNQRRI
T5 sequence (P04234 22-171 limits assumed, chain 2 of 2): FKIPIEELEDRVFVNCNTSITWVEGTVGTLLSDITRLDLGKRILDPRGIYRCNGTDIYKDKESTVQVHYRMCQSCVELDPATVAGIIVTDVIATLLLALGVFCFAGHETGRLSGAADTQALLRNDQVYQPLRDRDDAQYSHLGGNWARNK

[14] = molecular target: T4, cynomolgus monkey CD3 on cynomolgus T …; test: FACS titration of cynomolgus T cells
[15] = molecular target: T5, human CD3 on cells (Jurkat cells, human …); test: cell-based or functional assay
[16] = molecular target: T5, human CD3 on cells (Jurkat cells, human …); test: FACS binding titration on Jurkat cells
[17] = molecular target: T5, human CD3 on cells (Jurkat cells, human …); test: cell-based or functional assay; remark: listed apart in the source
[18] = molecular target: T1, human MUC16 (mucin 16), endogenously …; test: cell-based or functional assay; remark: listed apart in the source
[19] = molecular target: T5, human CD3 on cells (Jurkat cells, human …); test: cell-based or functional assay; remark: listed apart in the source
[20] = molecular target: T1, human MUC16 (mucin 16), endogenously …; test: FACS binding titration on OVCAR3 (MUC16+) cells
[21] = molecular target: T5, human CD3 on cells (Jurkat cells, human …); test: FACS binding titration on Jurkat cells; remark: listed apart in the source

B1: H2M7138N (antibody, mouse IgG2, V domains shown)
VH: QVQLVQSGAEVKKPGASVKVSCKASGYTFTSSDINWVRQATGQGLEWVGWMNPNYGYTGSARKFQDRVTMTRNTSLSTAYLELHSLRSEDTAVYYCARVTYCSSVTSCFRPFTYWGQGTLVTVSA
VL: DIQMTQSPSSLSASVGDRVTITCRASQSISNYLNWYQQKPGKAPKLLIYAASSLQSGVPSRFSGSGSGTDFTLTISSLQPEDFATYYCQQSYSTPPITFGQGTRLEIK
notes: Mouse IgG2 constant region (H2M); also called H2aM7138N
Ratio: anti-MUC16 Binding OVCAR-3/SK-OV-3 [1]: 50 ratio
Kd [2]: 1.25 nM
koff [2]: 9.25e-05 s⁻¹
kon [2]: 74100 M⁻¹ s⁻¹
t ½ [2]: 125 min
binding result [3]: binds
Ratio: anti-MUC16 Binding OVCAR-3/SK-OV-3 [4]: 82 ratio

B2: H1H8808P (antibody, human IgG1, V domains shown)
VH: QVQLVESGGGVVQPGRSLRLSCVASGFTFSNYGIHWVRQAPGKGLEWVAVISDDGSFKFYADSVKGRFTISRDNSKNTLYLQMNSLRVEDSAVYHCAKWQHNWNDGGFDYWGQGTLVTVSS
VL: EIVLTQSPDTLSLSPGERATLSCRASQSLSSNYLAWYRQKPGQAPRLLIYGISSRATGIPDRFSGSGSGTDFTLTISRLEPEDFAVYYCQQYGSSPWTFGQGTKVEIK
notes: Human IgG1 (H1H)
Kd [5]: 52.4 nM
koff [5]: 0.000216 s⁻¹
kon [5]: 4120 M⁻¹ s⁻¹
t1/2 [5]: 54 min
Ratio: anti-MUC16 Binding OVCAR-3/SK-OV-3 [6]: < 2.5 ratio
Ratio: anti-MUC16 Binding OVCAR-3/SK-OV-3 [4]: 4 ratio

B3: BSMUC16/CD3-005 (bispecific antibody, V domains shown)
VH 1: QVQLVESGGGLVKPGGSLRLSCAASGFTFSNYYMSWVRQAPGKGLEWISYISGRGSTIFYADSVKGRITISRDNAKNSLFLQMNSLRAEDTAVYFCVKDRGGYSPYWGQGTLVTVSS
VH 2: EVQLVESGGGLVQPGRSLRLSCAASGFTFDDYSMHWVRQAPGKGLEWVSGISWNSGSIGYADSVKGRFTISRDNAKNSLYLQMNSLRAEDTALYYCAKYGSGYGKFYYYGMDVWGQGTTVTVSS
VL: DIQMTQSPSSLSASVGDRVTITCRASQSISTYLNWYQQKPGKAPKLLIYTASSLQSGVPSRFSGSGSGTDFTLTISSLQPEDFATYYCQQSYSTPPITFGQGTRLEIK
notes: Anti-MUC16 VH (H1H8767P), anti-CD3 VH (CD3-VH-G20), common light chain; also called REGN4019; anti-MUC16xCD3 bispecific antibody with CD3-VH-G20 arm
EC50 [7]: 2.63 nM
PEO-1 cell depletion EC50 [8]: 0.0774 nM
OVCAR3-Luc cell depletion EC50 [9]: 0.0516 nM
EC50 [10]: 1170 nM
EC50 [11]: 1.47 nM
Kd [12]: 6 nM
koff [12]: 0.000564 s⁻¹
kon [12]: 94100 M⁻¹ s⁻¹
t ½ [12]: 21 min
binding result (mouse CD3): no binding

B4: H1H8767P (antibody, human IgG1, V domains shown)
VH: B3 VH 1
VL: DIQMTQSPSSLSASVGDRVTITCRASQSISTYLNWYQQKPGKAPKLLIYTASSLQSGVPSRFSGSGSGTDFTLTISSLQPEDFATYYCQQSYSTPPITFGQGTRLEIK
notes: Human IgG1 (H1H)
Kd [5]: 3.58 nM
koff [5]: 0.000418 s⁻¹
kon [5]: 117000 M⁻¹ s⁻¹
t1/2 [5]: 28 min
Ratio: anti-MUC16 Binding OVCAR-3/SK-OV-3 [6]: < 2.5 ratio
Ratio: anti-MUC16 Binding OVCAR-3/SK-OV-3 [4]: 4 ratio

Further lines, with some results ahead:

EC50 [13]: 1 to 40 nM
EC50 [14]: 1 to 40 nM
B5: CD3-VH-P (anti-CD3 antibody) (antibody, V domains shown)
VH: B3 VH 2 with A23V, I58K, G59D, Y108H, M111L
VL: DIQMTQSPSSLSASVGDSVTITCRASQSINNYLNWYQQKPGKAPKLLIYTASSLLSGVPSRFSGSGSGTDFTLTISGLHPEDFATYFCQQSFSTPPITFGQGTRLDIK

EC50 [7]: 3.02 nM
T cells activation (CD25 upregulation) EC50 [15]: 0.039 nM
T cells activation (CD69 upregulation) EC50 [15]: 0.00834 nM
PEO-1 cell depletion EC50 [8]: 0.0256 nM
EC50 [16]: 6.44 nM
T cell activation (CD69 upregulation) EC50 [17]: 0.00588 nM
OVCAR3 cell depletion EC50 [18]: 0.0224 nM
T cells activation (CD25 upregulation) EC50 [19]: 0.0306 nM
T cells activation (CD69 upregulation) EC50 [19]: 0.00298 nM
OVCAR3-Luc cell depletion EC50 [9]: 0.0154 nM
EC50 [20]: 1.2 nM
EC50 [10]: 15.6 nM
EC50 [21]: 3.21 nM
EC50 [11]: 1.32 nM
Kd [12]: 6.18 nM
koff [12]: 0.000586 s⁻¹
kon [12]: 94800 M⁻¹ s⁻¹
t ½ [12]: 20 min
binding result (mouse CD3): no binding
B6: BSMUC16/CD3-001 (bispecific antibody, V domains shown)
VH 1: B3 VH 1
VH 2: B3 VH 2 with I58K, Y108H, M111L
VL: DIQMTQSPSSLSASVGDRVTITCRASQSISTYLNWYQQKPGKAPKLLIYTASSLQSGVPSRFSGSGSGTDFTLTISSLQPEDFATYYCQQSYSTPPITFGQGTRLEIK
notes: Anti-MUC16 VH (H1H8767P), anti-CD3 VH (CD3-VH-G), common light chain; also called anti-MUC16xCD3 bispecific antibody with CD3-VH-G arm

EC50 [7]: 3.13 nM
T cells activation (CD25 upregulation) EC50 [15]: 0.0889 nM
T cells activation (CD69 upregulation) EC50 [15]: 0.0134 nM
PEO-1 cell depletion EC50 [8]: 0.0675 nM
EC50 [16]: 301 nM
T cell activation (CD69 upregulation) EC50 [17]: 0.0101 nM
OVCAR3 cell depletion EC50 [18]: 0.0306 nM
EC50 [20]: 2.69 nM
B7: BSMUC16/CD3-002 (bispecific antibody, V domains shown)
VH 1: B3 VH 1
VH 2: B3 VH 2 with Y99D
VL: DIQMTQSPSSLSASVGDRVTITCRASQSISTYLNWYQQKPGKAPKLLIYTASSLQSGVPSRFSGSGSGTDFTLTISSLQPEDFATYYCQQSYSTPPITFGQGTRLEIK
notes: Anti-MUC16 VH (H1H8767P), anti-CD3 VH (CD3-VH-G5), common light chain; also called anti-MUC16xCD3 bispecific antibody with CD3-VH-G5 arm
binding result [10]: no binding (tested: serial dilution from 66.6 nM to 0.001 nM)
